Holding throughout (assay): cell-based or functional assay
Assay [1] concerns the target CD19 (human) (UniProt P15391).
The target of assay [2] is anti-FITC CAR (FITC-E2 scFv, CD8 hinge and transmembrane region, 41BB and CD3 zeta) on human T cells.
Assay [3] concerns the target anti-FITC CAR with the 4D5Flu scFv (LV-EF1a-4D5Flu-BBZ), on transduced human T cells.
Assay [4] deals with anti-FITC CAR with the 4M5.3 scFv (LV-EF1a-4M5.3-BBZ), on transduced human T cells.
Assay [5] concerns the target anti-FITC CAR with the 4-4-20 scFv (LV-EF1a-4-4-20-BBZ), on transduced human T cells.
In assay [6] the target is anti-FITC CAR with the fully human FITC-E2 scFv (CD8 hinge, 41BB, CD3 zeta), on transduced human T cells.
Assay [7] has as its target CD33 on MOLM14 cells (human) (UniProt P20138).
The target of assay [8] is CD19 on NALM-6 (CD19+) cells (human) (UniProt P15391).

“And” between values parts separate entries of the source, which are not always exact repeats. Equal entries are not always repeated.

anti-FITC CAR with the fully human FITC-E2 scFv (CD8 hinge, 41BB, CD3 zeta), on transduced human T cells, sequence (chain, as listed by the source limits assumed): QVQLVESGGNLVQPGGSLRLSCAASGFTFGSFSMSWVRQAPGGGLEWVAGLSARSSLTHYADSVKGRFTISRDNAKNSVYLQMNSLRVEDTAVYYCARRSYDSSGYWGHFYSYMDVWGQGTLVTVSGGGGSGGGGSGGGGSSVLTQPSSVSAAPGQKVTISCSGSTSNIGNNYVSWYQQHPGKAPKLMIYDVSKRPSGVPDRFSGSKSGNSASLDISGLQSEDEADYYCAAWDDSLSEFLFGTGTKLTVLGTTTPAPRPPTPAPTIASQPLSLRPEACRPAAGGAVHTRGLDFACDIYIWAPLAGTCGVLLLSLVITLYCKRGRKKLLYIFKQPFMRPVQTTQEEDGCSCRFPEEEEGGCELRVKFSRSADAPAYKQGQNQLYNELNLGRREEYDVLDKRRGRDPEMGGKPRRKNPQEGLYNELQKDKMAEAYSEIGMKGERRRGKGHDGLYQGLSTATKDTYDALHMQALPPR
CD19 on NALM-6 (CD19+) cells (human), sequence (P15391 20-556): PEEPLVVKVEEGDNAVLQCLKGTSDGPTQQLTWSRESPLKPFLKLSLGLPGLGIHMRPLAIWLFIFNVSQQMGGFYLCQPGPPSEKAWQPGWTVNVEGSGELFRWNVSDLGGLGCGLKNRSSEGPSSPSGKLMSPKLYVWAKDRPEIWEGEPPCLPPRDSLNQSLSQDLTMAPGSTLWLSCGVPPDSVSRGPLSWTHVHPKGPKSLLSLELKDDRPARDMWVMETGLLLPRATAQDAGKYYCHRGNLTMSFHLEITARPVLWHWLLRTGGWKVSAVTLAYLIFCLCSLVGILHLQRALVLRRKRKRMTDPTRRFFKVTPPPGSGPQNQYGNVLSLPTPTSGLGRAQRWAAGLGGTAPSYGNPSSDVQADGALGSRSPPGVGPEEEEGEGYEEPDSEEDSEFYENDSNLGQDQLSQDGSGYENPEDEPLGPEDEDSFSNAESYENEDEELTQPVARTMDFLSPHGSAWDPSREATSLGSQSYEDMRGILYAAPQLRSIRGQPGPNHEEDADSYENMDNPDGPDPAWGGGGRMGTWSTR
CD19 (human), sequence (P15391 20-556): as above
CD33 on MOLM14 cells (human), sequence (P20138 18-364): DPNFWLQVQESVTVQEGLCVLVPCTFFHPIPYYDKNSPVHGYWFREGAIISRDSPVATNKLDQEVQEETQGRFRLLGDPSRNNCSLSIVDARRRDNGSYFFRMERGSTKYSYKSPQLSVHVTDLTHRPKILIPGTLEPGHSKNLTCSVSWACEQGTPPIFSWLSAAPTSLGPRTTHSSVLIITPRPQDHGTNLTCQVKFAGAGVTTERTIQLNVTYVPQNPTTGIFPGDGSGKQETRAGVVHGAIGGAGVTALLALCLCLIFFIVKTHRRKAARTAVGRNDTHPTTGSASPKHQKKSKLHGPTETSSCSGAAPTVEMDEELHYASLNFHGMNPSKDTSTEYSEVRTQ

As for “CART-19: second generation CD19 specific CAR with anti-CD19 scFv (clone FMC63), 41BB and CD3zeta, on human T cells”, in assay [1], the Human IFN-g, CART19 + Nalm-6 is 915 and 924 and 951; the target cell lysis, CART19 + Nalm-6, E:T 0.04:1 was 12.6 and 13; the target cell lysis, CART19 + Nalm-6, E:T 0.2:1 is 21.7 and 24.5; the target cell lysis, CART19 + Nalm-6, E:T printed as 1:01 was 52 and 48. In assay [1], the target cell lysis, CART19 + Nalm-6, E:T printed as 5:01 is 75.2 and 73.3; the target cell lysis, CART19 + Nalm-6, E:T printed as 15:01 is 87.3 and 88.3.

On to “anti-CD19 AB-FITC switch (anti-CD19 Fab, clone FMC63, FITC conjugated at light chain glycine 68 and heavy chain serine 74)”, for which, in assay [2], the % cytotoxicity, anti-FITC CAR-T + NALM-6 + 10 pM AB-FITC, with 0 nM free fluorescein turned out to be 54.8%; the % cytotoxicity, anti-FITC CAR-T + NALM-6 + 10 pM AB-FITC, with 1 nM free fluorescein is 57.1% and 58.1%; the % cytotoxicity, anti-FITC CAR-T + NALM-6 + 10 pM AB-FITC, with 10 nM free fluorescein was 56.2% and 56%; the % cytotoxicity, anti-FITC CAR-T + NALM-6 + 10 pM AB-FITC, with 100 nM free fluorescein came out at 55.7%. In assay [2], the % cytotoxicity, anti-FITC CAR-T + NALM-6 + 10 pM AB-FITC, with 1000 nM free fluorescein is 50.4% and 50.9%; the % cytotoxicity, anti-FITC CAR-T + NALM-6 + 10 pM AB-FITC, with 10000 nM free fluorescein is 27.4% and 31.6%.

“anti-CD19 AB-FITC switch (anti-human CD19 Fab, clone FMC63, FITC conjugated at light chain glycine 68 and heavy chain serine 74)”: in assay [3], the % cytotoxicity of CD19+ target cells, FIG. 68A, switch at 0.01 pM is 24% and 29.5%; the % cytotoxicity of CD19+ target cells, FIG. 68A, switch at 0.1 pM is 39.3% and 45.7%; the % cytotoxicity of CD19+ target cells, FIG. 68A, switch at 1 pM is 60.1%; the % cytotoxicity of CD19+ target cells, FIG. 68A, switch at 10 pM is 56.1% and 67.7%. In assay [3], the % cytotoxicity of CD19+ target cells, FIG. 68A, switch at 100 pM was 74.3% and 69.3%; the % cytotoxicity of CD19+ target cells, FIG. 68A, switch at 1000 pM amounted to 84.8%; the % cytotoxicity of CD19+ target cells, FIG. 68A, switch at 10000 pM is 73.6% and 76.9%; the % cytotoxicity of CD19+ target cells, FIG. 68A, switch at 1.00E-04 pM stood at 6.29%. Besides, in assay [3], the % cytotoxicity of CD19+ target cells, FIG. 68B, switch at 0.01 pM is 1.9% and 8.37%; the % cytotoxicity of CD19+ target cells, FIG. 68B, switch at 0.1 pM is 10.9% and 10.4%; the % cytotoxicity of CD19+ target cells, FIG. 68B, switch at 1 pM is 39.4% and 32.9%; the % cytotoxicity of CD19+ target cells, FIG. 68B, switch at 10 pM was 63.2% and 68.1%. In addition, in assay [3], the % cytotoxicity of CD19+ target cells, FIG. 68B, switch at 100 pM was 69.4% and 61.2%; the % cytotoxicity of CD19+ target cells, FIG. 68B, switch at 1000 pM was 72.5% and 63.6%; the % cytotoxicity of CD19+ target cells, FIG. 68B, switch at 10000 pM was 69.1% and 66.8%. In assay [4], the % cytotoxicity of CD19+ target cells, FIG. 68A, switch at 0.01 pM was 21%; the % cytotoxicity of CD19+ target cells, FIG. 68A, switch at 0.1 pM was 46.4% and 33.9%; the % cytotoxicity of CD19+ target cells, FIG. 68A, switch at 1 pM was 58.2% and 56.6%; the % cytotoxicity of CD19+ target cells, FIG. 68A, switch at 10 pM was 58.9% and 48.9%. For the same substance, in assay [4], the % cytotoxicity of CD19+ target cells, FIG. 68A, switch at 100 pM was 70.5% and 71.3%; the % cytotoxicity of CD19+ target cells, FIG. 68A, switch at 1000 pM was 83.2%; the % cytotoxicity of CD19+ target cells, FIG. 68A, switch at 10000 pM is 85.7% and 72%; the % cytotoxicity of CD19+ target cells, FIG. 68B, switch at 0.0001 pM is 2%. Moreover, in assay [4], the % cytotoxicity of CD19+ target cells, FIG. 68B, switch at 0.001 pM was 9.17%; the % cytotoxicity of CD19+ target cells, FIG. 68B, switch at 0.01 pM was 1.15%; the % cytotoxicity of CD19+ target cells, FIG. 68B, switch at 0.1 pM was 25.4%; the % cytotoxicity of CD19+ target cells, FIG. 68B, switch at 1 pM is 28.5% and 27.5%. In assay [4], the % cytotoxicity of CD19+ target cells, FIG. 68B, switch at 10 pM was found to be 58.4%; the % cytotoxicity of CD19+ target cells, FIG. 68B, switch at 100 pM was 60.8% and 65.8%; the % cytotoxicity of CD19+ target cells, FIG. 68B, switch at 1000 pM was 73.4% and 71.5%; the % cytotoxicity of CD19+ target cells, FIG. 68B, switch at 10000 pM is 64.2% and 55.2%. In assay [5], the % cytotoxicity of CD19+ target cells, FIG. 68A, switch at 0.01 pM was 0.526%; the % cytotoxicity of CD19+ target cells, FIG. 68A, switch at 0.1 pM was 32.8% and 33.3%; the % cytotoxicity of CD19+ target cells, FIG. 68A, switch at 1 pM was found to be 52.3%; the % cytotoxicity of CD19+ target cells, FIG. 68A, switch at 10 pM is 64.9% and 66.1%. In assay [5], the % cytotoxicity of CD19+ target cells, FIG. 68A, switch at 100 pM is 71.7% and 65.6%; the % cytotoxicity of CD19+ target cells, FIG. 68A, switch at 1000 pM came out at 67.8%; the % cytotoxicity of CD19+ target cells, FIG. 68A, switch at 10000 pM was 74.1% and 71.5%; the % cytotoxicity of CD19+ target cells, FIG. 68A, switch at 1.00E-03 pM was 4.97%. Moreover, in assay [5], the % cytotoxicity of CD19+ target cells, FIG. 68B, switch at 0.1 pM was 14.8% and 10.9%; the % cytotoxicity of CD19+ target cells, FIG. 68B, switch at 1 pM was 36.7% and 37.8%; the % cytotoxicity of CD19+ target cells, FIG. 68B, switch at 10 pM is 59% and 46.7%; the % cytotoxicity of CD19+ target cells, FIG. 68B, switch at 100 pM came out at 57.9%. Moreover, in assay [5], the % cytotoxicity of CD19+ target cells, FIG. 68B, switch at 1000 pM amounted to 55.8% and the % cytotoxicity of CD19+ target cells, FIG. 68B, switch at 10000 pM turned out to be 68.6%. In assay [6], the % cytotoxicity of CD19+ target cells, FIG. 68A, switch at 0.01 pM is 26.7% and 38.4%; the % cytotoxicity of CD19+ target cells, FIG. 68A, switch at 0.1 pM was 49% and 60.5%; the % cytotoxicity of CD19+ target cells, FIG. 68A, switch at 1 pM is 51% and 75.3%; the % cytotoxicity of CD19+ target cells, FIG. 68A, switch at 10 pM is 62.1% and 75.5%. In assay [6], the % cytotoxicity of CD19+ target cells, FIG. 68A, switch at 100 pM was 69.6% and 80.5%; the % cytotoxicity of CD19+ target cells, FIG. 68A, switch at 1000 pM was 80.6% and 99.8%; the % cytotoxicity of CD19+ target cells, FIG. 68A, switch at 10000 pM was 93.1% and 100%; the % cytotoxicity of CD19+ target cells, FIG. 68A, switch at 1.00E-03 pM is 10.3% and 25.2%. For the same substance, in assay [6], the % cytotoxicity of CD19+ target cells, FIG. 68B, switch at 0.0001 pM was 3.26% and 17%; the % cytotoxicity of CD19+ target cells, FIG. 68B, switch at 0.001 pM stood at 19.6%; the % cytotoxicity of CD19+ target cells, FIG. 68B, switch at 0.01 pM is 17.4%; the % cytotoxicity of CD19+ target cells, FIG. 68B, switch at 0.1 pM was 15%. Also, in assay [6], the % cytotoxicity of CD19+ target cells, FIG. 68B, switch at 1 pM is 47.4% and 43.2%; the % cytotoxicity of CD19+ target cells, FIG. 68B, switch at 10 pM is 64.6% and 70.1%; the % cytotoxicity of CD19+ target cells, FIG. 68B, switch at 100 pM was 60.7% and 67.6%; the % cytotoxicity of CD19+ target cells, FIG. 68B, switch at 1000 pM is 70.4%. For the same substance, the % cytotoxicity of CD19+ target cells, FIG. 68B, switch at 10000 pM in assay [6] was 72.7% and 75.4%.

On to “anti-CD33 hM195 CD-FITC switch (light chain T113 and heavy chain A117) (Fab)”, for which the EC50 of cytotoxicity of anti-FITC CAR-T cells against MOLM14 cells in assay [7] was 18.5 pM.

For the substance isotype control (Millipore) (antibody), in assay [8], the % cytotoxicity, anti-FITC CAR-T + NALM-6 + 10 pM AB-FITC, with 0 pM isotype (IgG) was 54.6% and 51.4%; the % cytotoxicity, anti-FITC CAR-T + NALM-6 + 10 pM AB-FITC, with 1 pM isotype (IgG) is 48.3% and 48.2%; the % cytotoxicity, anti-FITC CAR-T + NALM-6 + 10 pM AB-FITC, with 10 pM isotype (IgG) is 49.6% and 49.9%; the % cytotoxicity, anti-FITC CAR-T + NALM-6 + 10 pM AB-FITC, with 100 pM isotype (IgG) is 50% and 44.7%. Besides, in assay [8], the % cytotoxicity, anti-FITC CAR-T + NALM-6 + 10 pM AB-FITC, with 1000 pM isotype (IgG) is 45.7% and 41.6%; the % cytotoxicity, anti-FITC CAR-T + NALM-6 + 10 pM AB-FITC, with 10000 pM isotype (IgG) is 44.4% and 43%.

With “non-conjugated anti-CD19 Fab (clone FMC63)”, in assay [2], the % cytotoxicity at 0.0001 pM; anti-FITC CAR-T; FIG. 72A worked out at 1.78%, the % cytotoxicity at 0.0001 pM; anti-FITC CAR-T; FIG. 72C is 1.12%, the % cytotoxicity at 0.001 pM; anti-FITC CAR-T; FIG. 72A stood at 0.731% and the % cytotoxicity at 0.001 pM; anti-FITC CAR-T; FIG. 72B was 2.73%. In assay [2], this substance had a % cytotoxicity at 0.001 pM; anti-FITC CAR-T; FIG. 72C of 5.24%, a % cytotoxicity at 0.01 pM; anti-FITC CAR-T; FIG. 72A of 8.15%, a % cytotoxicity at 0.01 pM; anti-FITC CAR-T; FIG. 72B of 2.04% and a % cytotoxicity at 0.1 pM; anti-FITC CAR-T; FIG. 72A of 1.96%. Besides, in assay [2], the % cytotoxicity at 0.1 pM; anti-FITC CAR-T; FIG. 72C was determined as 2.66%, the % cytotoxicity at 1 pM; anti-FITC CAR-T; FIG. 72A stood at 4.93%, the % cytotoxicity at 1 pM; anti-FITC CAR-T; FIG. 72B was 3.84% and the % cytotoxicity at 1 pM; anti-FITC CAR-T; FIG. 72C amounted to 1.99%. In assay [2], the % cytotoxicity at 10 pM; anti-FITC CAR-T; FIG. 72A was 3.73% and 2.56%; the % cytotoxicity at 10 pM; anti-FITC CAR-T; FIG. 72B was 4.56% and 2.09%; the % cytotoxicity at 10 pM; anti-FITC CAR-T; FIG. 72C is 1.85% and 9.94%; the % cytotoxicity at 100 pM; anti-FITC CAR-T; FIG. 72A was 4.61% and 8.92%. For the same substance, in assay [2], the % cytotoxicity at 100 pM; anti-FITC CAR-T; FIG. 72B is 3.24% and 1.4%; the % cytotoxicity at 100 pM; anti-FITC CAR-T; FIG. 72C was 4.45% and 12.1%; the % cytotoxicity at 1000 pM; anti-FITC CAR-T; FIG. 72B is 10.5% and 2.6%; the % cytotoxicity at 1000 pM; anti-FITC CAR-T; FIG. 72C is 2.18% and 5.61%. In assay [2], the % cytotoxicity at 10000 pM; anti-FITC CAR-T; FIG. 72A is 11.7% and 1.87%; the % cytotoxicity at 10000 pM; anti-FITC CAR-T; FIG. 72B amounted to 2.58%; the % cytotoxicity at 10000 pM; anti-FITC CAR-T; FIG. 72C is 1.37% and 1.83%.

These data come from patent US20180100026A1.
